The target in this assay is human mesothelin (MSLN) on the cell surface (human) (UniProt Q13421). Description: FACS on MiaPaCa-MSLN #2 cells, upper histogram and table.
Chain of human mesothelin (MSLN) on the cell surface (human) (Q13421 other isoform, or with tags, fused parts or gaps limits assumed): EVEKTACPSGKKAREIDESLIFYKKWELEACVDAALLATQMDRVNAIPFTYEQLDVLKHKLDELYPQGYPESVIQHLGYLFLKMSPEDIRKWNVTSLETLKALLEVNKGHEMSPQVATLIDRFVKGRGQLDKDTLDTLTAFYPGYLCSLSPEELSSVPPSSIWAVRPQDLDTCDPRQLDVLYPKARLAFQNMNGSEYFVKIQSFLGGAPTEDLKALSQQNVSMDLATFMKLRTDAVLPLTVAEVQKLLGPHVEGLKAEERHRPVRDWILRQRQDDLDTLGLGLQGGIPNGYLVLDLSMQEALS

B1: BAY94-9343 (antibody, INN chains, looked up, V domains shown)
VH: QVELVQSGAEVKKPGESLKISCKGSGYSFTSYWIGWVRQAPGKGLEWMGIIDPGDSRTRYSPSFQGQVTISADKSISTAYLQWSSLKASDTAMYYCARGQLYGGTYMDGWGQGTLVTVSS
VL: DIALTQPASVSGSPGQSITISCTGTSSDIGGYNSVSWYQQHPGKAPKLMIYGVNNRPSGVSNRFSGSKSGNTASLTISGLQAEDEADYYCSSYDIESATPVFGGGTKLTVL
modifications: ravtansine (DM4) payload
For the molecule B1, the Mean, FL2-H was found to be 2710.

(Values after patent US20180346588A1.)
